Reference: US20110262445A1 (CEPHALON AUSTRALIA, published 2011)

T1: human IL-12 (human, UniProt P29460 23-328; P29459 23-219)
T1 construct: Recombinant (Peprotech); FLAG-tagged IL-12 in the flow cytometry assays, biotinylated in the IL-12Rβ2 assay; also called hIL-12
T1 sequence 1: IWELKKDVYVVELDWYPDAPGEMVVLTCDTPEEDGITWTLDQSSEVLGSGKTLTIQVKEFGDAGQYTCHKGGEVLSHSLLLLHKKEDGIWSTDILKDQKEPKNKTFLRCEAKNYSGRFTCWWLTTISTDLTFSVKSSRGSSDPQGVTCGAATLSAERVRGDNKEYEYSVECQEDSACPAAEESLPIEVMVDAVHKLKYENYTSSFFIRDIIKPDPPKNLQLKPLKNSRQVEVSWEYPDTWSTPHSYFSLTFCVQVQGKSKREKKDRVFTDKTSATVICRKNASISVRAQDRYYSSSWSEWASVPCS
T1 sequence 2: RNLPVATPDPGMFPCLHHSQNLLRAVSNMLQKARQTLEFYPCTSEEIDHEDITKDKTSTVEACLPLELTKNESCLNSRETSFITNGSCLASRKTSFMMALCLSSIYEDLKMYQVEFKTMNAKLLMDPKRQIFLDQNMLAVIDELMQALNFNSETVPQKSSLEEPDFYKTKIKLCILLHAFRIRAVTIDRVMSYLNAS

T2: human IL-23 (human, UniProt P29460 23-328; Q9NPF7 20-189)
T2 construct: Recombinant (Ebioscience); HIS-tagged in flow cytometry, biotinylated in some assays; also called hIL-23; rhIL-23
T2 sequence 1: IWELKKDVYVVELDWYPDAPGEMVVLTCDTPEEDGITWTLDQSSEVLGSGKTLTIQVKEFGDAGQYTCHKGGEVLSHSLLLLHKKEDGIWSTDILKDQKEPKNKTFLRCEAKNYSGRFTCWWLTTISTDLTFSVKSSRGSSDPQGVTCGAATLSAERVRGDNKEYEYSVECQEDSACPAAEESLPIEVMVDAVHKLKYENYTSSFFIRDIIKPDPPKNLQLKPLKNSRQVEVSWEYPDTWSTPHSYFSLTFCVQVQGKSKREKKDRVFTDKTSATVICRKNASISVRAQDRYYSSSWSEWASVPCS
T2 sequence 2: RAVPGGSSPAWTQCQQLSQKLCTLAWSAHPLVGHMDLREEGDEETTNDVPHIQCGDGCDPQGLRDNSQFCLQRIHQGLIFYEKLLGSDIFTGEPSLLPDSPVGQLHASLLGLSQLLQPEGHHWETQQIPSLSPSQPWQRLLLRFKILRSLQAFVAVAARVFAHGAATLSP


Key:
[1] = biological target: T1, human IL-12; assay: SPR, purified scFv captured via FLAG
Description: (§1) A number of the scFv variants presented in TABLE 4 were selected for full characterization of binding kinetics, encompassing a broad range of mutation profiles and binding affinities. Large-scale protein expressions were carried out for each scFv. The expressed scFvs were purified as monomeric proteins and tested for binding against IL-12 and IL-23 by SPR (TABLE 5).
(§2) Purified scFvs were subjected to full kinetic characterization using a BIAcore T100 biosensor (GE Healthcare). Approximately 10,000 RU of the proprietry FLAG-specific capture molecule was immobilized on a CM5 Series S Sensor chip, using standard amine coupling chemistry in flow cells (FC) 1 and FC2 (or alternatively FC3 and FC4) of the BIAcore T100 Biosensor. The running buffer used was HBS-EP+ (BIAcore) and interactions measured at 30° C. or 35° C. to promote differentiation of scFvs with very similiar kd values. Peak purified FLAG-tagged scFvs (prepared as described in the previous paragraph) were diluted to 10 nM in running buffer, and captured on FC2 at a flow rate of 10 μl/min in order to capture 50 RU of scFv (typically 60 sec was sufficient to capture this level of tagged scFv). After an appropriate stabilization period, the target, IL-12 or IL-23, were passed over FC1 and FC2 at a flow rate of 60 μl/min at concentrations ranging from 81 nM to 0.13 nM (using a five-fold dilution of IL-12) and 81 nM to 1 nM (using a three-fold dilution of IL-23). The contact time for association was 180 sec and dissociation measured for 10 mins for the highest concentration and 300 sec for all other concentrations in the series. The sensorgram data from FC2 was subtracted from FC1 and a buffer only control. The curves were fitted using a 1:1 Langmuir equation to generate the kₐ, kd and KD values.

[2] = biological target: T2, human IL-23; assay: SPR, purified scFv captured via FLAG
Description: as §1, §2

[3] = biological target: T2, human IL-23; assay: SPR screen, crude scFv captured via FLAG
Description: Approximately 6500 individual scFvs recovered from the ribosome display reactions were expressed and screened for binding against IL-23 using a high-throughout SPR assay. The variants were ranked according to the kd and the best variants were sequenced at the nucleic acid level.
High-throughput SPR screening was conducted using a BIAcore A100 biosensor (GE Healthcare). Approximately 10 000 RU of the proprietary FLAG-specific capture molecule was immobilized on a CM5 Series S Sensor chip, using standard amine coupling chemistry on Spots 1 & 5 (outer spots) and 3,000RU to Spots 2 & 4 (inner spots) in each of the four flow cells of the BIAcore A100 Biosensor. The running buffer used was HBS-EP+ (BIAcore) and all interactions measured at 25° C. Crude periplasmic preparations of FLAG-tagged scFvs (prepared as described in the previous paragraph), were diluted two-fold in running buffer before capturing at a flow rate of 5u1/min for 60 sec. Approx. 100RU (on outer spots) and 50RU (on inner spots) of tagged scFv was captured. Following a 2 min stabilization period, IL-23 was passed over all spots of all four flow cells simultaneously at a flow rate of 30u1/min for 120 sec and dissociation monitored for 200 sec. Generated sensorgrams were referenced against the unmodified spot 3 of each flow cell, and fitted using a 1:1 Langmuir equation with R1 set to local to account for varying ligand densities to generate the kₐ, kd and KD values.

Binder	Kd [1]	koff [1]	kon [1]	Kd [2]	koff [2]	kon [2]	koff [3]
scFv AQ-G10 (scFv, scFv-80 variant: VH K12E, R66G; not shown: proprietary C-terminal FLAG tag) scFv: QVQLVQSGAEVEKPGASVKVSCKASGYTFTDYYLHWVRQAPGQGLEWMGWIDPENGDTEYAPKFQGGVTMTTDTSTSTAYMELRSLRSDDTAVYYCNANKELRYFDVWGQGTMVTVSSGGGGSGGGGSGGGGSEIVMTQSPATLSVSPGERATLSCRASQSISINLHWYQQKPGQAPRLLIYFASQSISGIPARFSGSGSGTEFTLTISSLQSEDFAVYYCQQSNSFPLTFGGGTKVEIKR	0.35 nM	0.00052 s⁻¹	1.5e+06 M⁻¹ s⁻¹	0.17 nM	4.9e-05 s⁻¹	280000 M⁻¹ s⁻¹	0.00029 s⁻¹
scFv AU-G9 (scFv, scFv-80 variant: VH Q43R; VL I55T; not shown: proprietary C-terminal FLAG tag) scFv: QVQLVQSGAEVKKPGASVKVSCKASGYTFTDYYLHWVRQAPGRGLEWMGWIDPENGDTEYAPKFQGRVTMTTDTSTSTAYMELRSLRSDDTAVYYCNANKELRYFDVWGQGTMVTVSSGGGGSGGGGSGGGGSEIVMTQSPATLSVSPGERATLSCRASQSISINLHWYQQKPGQAPRLLIYFASQSTSGIPARFSGSGSGTEFTLTISSLQSEDFAVYYCQQSNSFPLTFGGGTKVEIKR	0.11 nM	0.00024 s⁻¹	2.1e+06 M⁻¹ s⁻¹	0.13 nM	4.4e-05 s⁻¹	340000 M⁻¹ s⁻¹	0.00031 s⁻¹
scFv AV-F11 (scFv, scFv-80 variant: VH S112P; VL I75T; not shown: proprietary C-terminal FLAG tag) scFv: QVQLVQSGAEVKKPGASVKVSCKASGYTFTDYYLHWVRQAPGQGLEWMGWIDPENGDTEYAPKFQGRVTMTTDTSTSTAYMELRSLRSDDTAVYYCNANKELRYFDVWGQGTMVTVPSGGGGSGGGGSGGGGSEIVMTQSPATLSVSPGERATLSCRASQSISINLHWYQQKPGQAPRLLIYFASQSISGIPARFSGSGSGTEFTLTTSSLQSEDFAVYYCQQSNSFPLTFGGGTKVEIKR	0.2 nM	0.00033 s⁻¹	1.6e+06 M⁻¹ s⁻¹	0.093 nM	2.5e-05 s⁻¹	270000 M⁻¹ s⁻¹	0.00028 s⁻¹
scFv AX-G4 (scFv, scFv-80 variant: VL S26P; not shown: proprietary C-terminal FLAG tag) scFv: QVQLVQSGAEVKKPGASVKVSCKASGYTFTDYYLHWVRQAPGQGLEWMGWIDPENGDTEYAPKFQGRVTMTTDTSTSTAYMELRSLRSDDTAVYYCNANKELRYFDVWGQGTMVTVSSGGGGSGGGGSGGGGSEIVMTQSPATLSVSPGERATLSCRAPQSISINLHWYQQKPGQAPRLLIYFASQSISGIPARFSGSGSGTEFTLTISSLQSEDFAVYYCQQSNSFPLTFGGGTKVEIKR	0.14 nM	0.00031 s⁻¹	2.3e+06 M⁻¹ s⁻¹	0.15 nM	5.5e-05 s⁻¹	360000 M⁻¹ s⁻¹	0.00036 s⁻¹
scFv BB-A9 (scFv, scFv-80 variant: VH T28A, T68S; not shown: proprietary C-terminal FLAG tag) scFv: QVQLVQSGAEVKKPGASVKVSCKASGYAFTDYYLHWVRQAPGQGLEWMGWIDPENGDTEYAPKFQGRVSMTTDTSTSTAYMELRSLRSDDTAVYYCNANKELRYFDVWGQGTMVTVSSGGGGSGGGGSGGGGSEIVMTQSPATLSVSPGERATLSCRASQSISINLHWYQQKPGQAPRLLIYFASQSISGIPARFSGSGSGTEFTLTISSLQSEDFAVYYCQQSNSFPLTFGGGTKVEIKR	0.12 nM	0.00023 s⁻¹	2e+06 M⁻¹ s⁻¹	0.16 nM	4.4e-05 s⁻¹	310000 M⁻¹ s⁻¹	0.00045 s⁻¹
scFv BU-B1 (scFv, scFv-80 variant: VH L34M; not shown: proprietary C-terminal FLAG tag) scFv: QVQLVQSGAEVKKPGASVKVSCKASGYTFTDYYMHWVRQAPGQGLEWMGWIDPENGDTEYAPKFQGRVTMTTDTSTSTAYMELRSLRSDDTAVYYCNANKELRYFDVWGQGTMVTVSSGGGGSGGGGSGGGGSEIVMTQSPATLSVSPGERATLSCRASQSISINLHWYQQKPGQAPRLLIYFASQSISGIPARFSGSGSGTEFTLTISSLQSEDFAVYYCQQSNSFPLTFGGGTKVEIKR	0.12 nM	0.00024 s⁻¹	2e+06 M⁻¹ s⁻¹	0.12 nM	3.7e-05 s⁻¹	300000 M⁻¹ s⁻¹	0.00029 s⁻¹
scFv BY-B4 (scFv, scFv-80 variant: VH T28A; not shown: proprietary C-terminal FLAG tag) scFv: QVQLVQSGAEVKKPGASVKVSCKASGYAFTDYYLHWVRQAPGQGLEWMGWIDPENGDTEYAPKFQGRVTMTTDTSTSTAYMELRSLRSDDTAVYYCNANKELRYFDVWGQGTMVTVSSGGGGSGGGGSGGGGSEIVMTQSPATLSVSPGERATLSCRASQSISINLHWYQQKPGQAPRLLIYFASQSISGIPARFSGSGSGTEFTLTISSLQSEDFAVYYCQQSNSFPLTFGGGTKVEIKR	–	–	–	–	–	–	0.00033 s⁻¹
scFv BZ-G10 (scFv, scFv-80 variant: VL Q27R; not shown: proprietary C-terminal FLAG tag) scFv: QVQLVQSGAEVKKPGASVKVSCKASGYTFTDYYLHWVRQAPGQGLEWMGWIDPENGDTEYAPKFQGRVTMTTDTSTSTAYMELRSLRSDDTAVYYCNANKELRYFDVWGQGTMVTVSSGGGGSGGGGSGGGGSEIVMTQSPATLSVSPGERATLSCRASRSISINLHWYQQKPGQAPRLLIYFASQSISGIPARFSGSGSGTEFTLTISSLQSEDFAVYYCQQSNSFPLTFGGGTKVEIKR	–	–	–	–	–	–	0.00036 s⁻¹
scFv CE-A6 (scFv, scFv-80 variant: VL G64S; not shown: proprietary C-terminal FLAG tag) scFv: QVQLVQSGAEVKKPGASVKVSCKASGYTFTDYYLHWVRQAPGQGLEWMGWIDPENGDTEYAPKFQGRVTMTTDTSTSTAYMELRSLRSDDTAVYYCNANKELRYFDVWGQGTMVTVSSGGGGSGGGGSGGGGSEIVMTQSPATLSVSPGERATLSCRASQSISINLHWYQQKPGQAPRLLIYFASQSISGIPARFSSSGSGTEFTLTISSLQSEDFAVYYCQQSNSFPLTFGGGTKVEIKR	–	–	–	–	–	–	0.00033 s⁻¹
scFv CL-G7 (scFv, scFv-80 variant: VH E10Q; not shown: proprietary C-terminal FLAG tag) scFv: QVQLVQSGAQVKKPGASVKVSCKASGYTFTDYYLHWVRQAPGQGLEWMGWIDPENGDTEYAPKFQGRVTMTTDTSTSTAYMELRSLRSDDTAVYYCNANKELRYFDVWGQGTMVTVSSGGGGSGGGGSGGGGSEIVMTQSPATLSVSPGERATLSCRASQSISINLHWYQQKPGQAPRLLIYFASQSISGIPARFSGSGSGTEFTLTISSLQSEDFAVYYCQQSNSFPLTFGGGTKVEIKR	–	–	–	–	–	–	0.00012 s⁻¹
scFv CW-H1 (scFv, scFv-80 variant: VL S52R; not shown: proprietary C-terminal FLAG tag) scFv: QVQLVQSGAEVKKPGASVKVSCKASGYTFTDYYLHWVRQAPGQGLEWMGWIDPENGDTEYAPKFQGRVTMTTDTSTSTAYMELRSLRSDDTAVYYCNANKELRYFDVWGQGTMVTVSSGGGGSGGGGSGGGGSEIVMTQSPATLSVSPGERATLSCRASQSISINLHWYQQKPGQAPRLLIYFARQSISGIPARFSGSGSGTEFTLTISSLQSEDFAVYYCQQSNSFPLTFGGGTKVEIKR	–	–	–	–	–	–	0.00016 s⁻¹
scFv CW-H7 (scFv, scFv-80 variant: VL V13M; not shown: proprietary C-terminal FLAG tag) scFv: QVQLVQSGAEVKKPGASVKVSCKASGYTFTDYYLHWVRQAPGQGLEWMGWIDPENGDTEYAPKFQGRVTMTTDTSTSTAYMELRSLRSDDTAVYYCNANKELRYFDVWGQGTMVTVSSGGGGSGGGGSGGGGSEIVMTQSPATLSMSPGERATLSCRASQSISINLHWYQQKPGQAPRLLIYFASQSISGIPARFSGSGSGTEFTLTISSLQSEDFAVYYCQQSNSFPLTFGGGTKVEIKR	–	–	–	–	–	–	0.000278 s⁻¹
